Assay results: the supplement of paper PMC9112550, “Optimization of the antimicrobial peptide Bac7 by deep mutational scanning” (BMC Biology, 2022)

Tested on: Escherichia coli TOP10
Assay: shrunken log2 fold change of peptide-encoding DNA abundance (4.5 h post-induction vs induction); higher = less antimicrobial activity (less host growth inhibition)
Conditions: time post-induction: 4.5 h; library: site-saturation at positions 5, 18, 19, 20
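Also: peptides expressed intracellularly from a pBAD plasmid library in pooled LB shake-flask culture, induced with 0.3% L-arabinose, DNA abundance read by NGS, three biological replicates, DESeq2 with apeglm shrinkage.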

Sequence | shrunken log2 fold change
RRIRYRPPRLPRPRPRPQYMPRP | -0.192
RRIRPRPPRLPRPRPRPNRKPRP | -0.371
RRIRMRPPRLPRPRPRPSKRPRP | 0.386
RRIRQRPPRLPRPRPRPGKGPRP | 0.00842
RRIRERPPRLPRPRPRPEIEPRP | 0.0286
RRIRDRPPRLPRPRPRPAVAPRP | 0.309
RRIRARPPRLPRPRPRPGMEPRP | 0.161
RRIRNRPPRLPRPRPRPHRQPRP | -0.0962
RRIRPRPPRLPRPRPRPRCPPRP | 0.208
RRIRGRPPRLPRPRPRPMDFPRP | 0.213
RRIRRRPPRLPRPRPRPLPEPRP | 0.731
RRIRERPPRLPRPRPRPGMPPRP | -0.0315
RRIRERPPRLPRPRPRPFMAPRP | -0.891
RRIRVRPPRLPRPRPRPPDMPRP | -0.239
RRIRSRPPRLPRPRPRPWDVPRP | 0.166
RRIRARPPRLPRPRPRPLGPPRP | 0.337
RRIRQRPPRLPRPRPRPIPCPRP | -0.244
RRIRERPPRLPRPRPRPRAIPRP | 0.0706
RRIRWRPPRLPRPRPRPVLKPRP | 0.637
RRIRYRPPRLPRPRPRPNFMPRP | -0.821
RRIRERPPRLPRPRPRPNFHPRP | -0.382
RRIRSRPPRLPRPRPRPPAVPRP | 0.711
RRIRKRPPRLPRPRPRPDTEPRP | 1.13
RRIRKRPPRLPRPRPRPRCDPRP | 0.288
RRIRRRPPRLPRPRPRPAVAPRP | 0.66

Sequence | shrunken log2 fold change
RRIRIRPPRLPRPRPRPNYYPRP | -1.07
RRIRHRPPRLPRPRPRPSSWPRP | -0.0281
RRIRIRPPRLPRPRPRPIPPPRP | 0.112
RRIRLRPPRLPRPRPRPWCYPRP | -0.489
RRIRPRPPRLPRPRPRPMTWPRP | -0.00489
RRIRTRPPRLPRPRPRPESQPRP | -0.0324
RRIRKRPPRLPRPRPRPYNRPRP | -0.0322
RRIRQRPPRLPRPRPRPSQEPRP | 0.0169
RRIRLRPPRLPRPRPRPKNTPRP | -0.333
RRIRNRPPRLPRPRPRPELSPRP | 0.0211
RRIRYRPPRLPRPRPRPSHKPRP | -1.57
RRIRPRPPRLPRPRPRPSAPPRP | 0.017
RRIRDRPPRLPRPRPRPCVPPRP | -0.135
RRIRPRPPRLPRPRPRPEYVPRP | -0.0441
RRIRCRPPRLPRPRPRPLMGPRP | -0.214
RRIRYRPPRLPRPRPRPWCSPRP | -0.504
RRIRRRPPRLPRPRPRPDHWPRP | -0.136
RRIRPRPPRLPRPRPRPTGTPRP | 0.104
RRIRQRPPRLPRPRPRPVPYPRP | -0.363
RRIRFRPPRLPRPRPRPQMNPRP | -0.709
RRIRSRPPRLPRPRPRPRDYPRP | -0.341
RRIRNRPPRLPRPRPRPWNFPRP | -0.0018
RRIRERPPRLPRPRPRPDKHPRP | 0.236
RRIRPRPPRLPRPRPRPFAFPRP | 0.00781
RRIRFRPPRLPRPRPRPTKYPRP | -0.635

Sequence | shrunken log2 fold change
RRIRRRPPRLPRPRPRPDVPPRP | 0.0826
RRIRLRPPRLPRPRPRPRYDPRP | 0.0436
RRIRPRPPRLPRPRPRPKYDPRP | -0.612
RRIRYRPPRLPRPRPRPTNQPRP | -0.575
RRIRYRPPRLPRPRPRPQELPRP | -0.00884
RRIRERPPRLPRPRPRPMAMPRP | 0.0346
RRIRTRPPRLPRPRPRPDKGPRP | 0.0109
RRIRGRPPRLPRPRPRPKALPRP | 0.0797
RRIRRRPPRLPRPRPRPLDVPRP | 0.179
RRIRGRPPRLPRPRPRPLCVPRP | 0.689
RRIRERPPRLPRPRPRPKGGPRP | -0.0194
RRIRLRPPRLPRPRPRPHKSPRP | -0.399
RRIRDRPPRLPRPRPRPLCCPRP | 0.0616
RRIRIRPPRLPRPRPRPVKQPRP | 0.101
RRIRPRPPRLPRPRPRPRICPRP | 0.0562
RRIRARPPRLPRPRPRPNVNPRP | -0.0484
RRIRVRPPRLPRPRPRPPARPRP | 0.76
RRIRTRPPRLPRPRPRPRLLPRP | 0.0778
RRIRMRPPRLPRPRPRPRKVPRP | 0.767
RRIRERPPRLPRPRPRPLWGPRP | 0.0859
RRIRFRPPRLPRPRPRPWDNPRP | -0.298
RRIRCRPPRLPRPRPRPSHTPRP | -0.283
RRIRIRPPRLPRPRPRPKRVPRP | 0.0424
RRIRQRPPRLPRPRPRPLVLPRP | 0.00943
RRIRYRPPRLPRPRPRPTRCPRP | 0.175

Sequence | shrunken log2 fold change
RRIRQRPPRLPRPRPRPVTLPRP | -0.153
RRIRWRPPRLPRPRPRPSKCPRP | -0.00209
RRIRGRPPRLPRPRPRPTGEPRP | 0.0778
RRIRCRPPRLPRPRPRPWAQPRP | -0.211
RRIRARPPRLPRPRPRPNIIPRP | -0.248
RRIRIRPPRLPRPRPRPTPVPRP | 0.234
RRIRARPPRLPRPRPRPMGQPRP | 0.229
RRIRNRPPRLPRPRPRPEGMPRP | 0.225
RRIRFRPPRLPRPRPRPMLPPRP | -0.184
RRIRHRPPRLPRPRPRPGSVPRP | -0.31
RRIRRRPPRLPRPRPRPNTTPRP | -0.283
RRIRQRPPRLPRPRPRPHSHPRP | 0.0496
RRIRTRPPRLPRPRPRPQWYPRP | -0.524
RRIRIRPPRLPRPRPRPQKTPRP | -0.168
RRIRFRPPRLPRPRPRPDVCPRP | -0.1
RRIRRRPPRLPRPRPRPHKCPRP | -0.346
RRIRCRPPRLPRPRPRPFTWPRP | -0.188
RRIRGRPPRLPRPRPRPHVPPRP | 0.103
RRIRKRPPRLPRPRPRPEFGPRP | 0.0185
RRIRFRPPRLPRPRPRPSKFPRP | -0.434
RRIRERPPRLPRPRPRPPNKPRP | -0.243
RRIRTRPPRLPRPRPRPEHWPRP | -0.00863
RRIRSRPPRLPRPRPRPYYQPRP | -0.608
RRIRERPPRLPRPRPRPITPPRP | -0.628
RRIRPRPPRLPRPRPRPNWVPRP | -0.2

Sequence | shrunken log2 fold change
RRIRTRPPRLPRPRPRPVGYPRP | 0.35
RRIRGRPPRLPRPRPRPDTMPRP | 0.00209
RRIRARPPRLPRPRPRPNPRPRP | 0.722
RRIRQRPPRLPRPRPRPHQQPRP | -0.101
RRIRARPPRLPRPRPRPHYLPRP | -0.503
RRIRHRPPRLPRPRPRPTIAPRP | 0.451
RRIRCRPPRLPRPRPRPNTWPRP | -0.539
RRIRMRPPRLPRPRPRPTSTPRP | 0.16
RRIRVRPPRLPRPRPRPMAIPRP | -0.11
RRIRPRPPRLPRPRPRPVYYPRP | -0.348
RRIRCRPPRLPRPRPRPKASPRP | -0.00163
RRIRPRPPRLPRPRPRPAVYPRP | -0.0879
RRIRNRPPRLPRPRPRPTVKPRP | -0.00906
RRIRHRPPRLPRPRPRPMKHPRP | -0.0367
RRIRARPPRLPRPRPRPIRLPRP | -0.0928
RRIRDRPPRLPRPRPRPIPYPRP | -0.0147
RRIRCRPPRLPRPRPRPCRCPRP | -0.389
RRIRFRPPRLPRPRPRPLDHPRP | -0.359
RRIRCRPPRLPRPRPRPAPNPRP | 0.526
RRIRSRPPRLPRPRPRPEEHPRP | -0.0107
RRIRWRPPRLPRPRPRPGYLPRP | 0.0065
RRIRTRPPRLPRPRPRPDGTPRP | -0.208
RRIRGRPPRLPRPRPRPVAHPRP | 0.548
RRIRDRPPRLPRPRPRPMWCPRP | 0.00673
RRIRIRPPRLPRPRPRPHDNPRP | -0.53
